Data from patent publication US20240325561A1 (Seagen, published 2024).

T1: CD19 (UniProt P15391 20-556, limits assumed)
T1 sequence (looked up): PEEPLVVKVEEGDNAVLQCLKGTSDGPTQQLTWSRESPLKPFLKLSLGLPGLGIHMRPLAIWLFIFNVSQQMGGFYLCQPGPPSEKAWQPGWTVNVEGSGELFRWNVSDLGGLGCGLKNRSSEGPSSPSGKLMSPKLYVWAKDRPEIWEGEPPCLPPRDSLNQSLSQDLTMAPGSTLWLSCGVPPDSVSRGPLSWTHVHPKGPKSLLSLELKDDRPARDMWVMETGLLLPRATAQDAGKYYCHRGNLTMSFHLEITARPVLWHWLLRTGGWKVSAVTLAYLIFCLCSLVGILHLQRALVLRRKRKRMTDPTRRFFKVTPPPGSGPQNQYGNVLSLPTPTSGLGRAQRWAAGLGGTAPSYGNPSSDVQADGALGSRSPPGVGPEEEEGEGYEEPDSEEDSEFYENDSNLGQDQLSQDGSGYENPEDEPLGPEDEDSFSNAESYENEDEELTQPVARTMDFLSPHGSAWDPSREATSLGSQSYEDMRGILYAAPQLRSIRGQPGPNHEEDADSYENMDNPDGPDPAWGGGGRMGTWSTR


Each molecule was assayed against T1, CD19 (assay: cell-based or functional assay).

| Molecule | IC50, in vitro cytotoxicity, RL cells [µg/mL] | IC50, in vitro cytotoxicity, Ramos cells [µg/mL] | IC50, in vitro cytotoxicity, SU-DHL-4 cells [µg/mL] | IC50, in vitro cytotoxicity, WSU-DLCL-2 cells [µg/mL] |
| --- | --- | --- | --- | --- |
| hBU12-14 (antibody, V domains shown, antibody carries drug-linker 14 (MDpr-glucuronide-MMAE, no PEG), 8 drugs per antibody) VH: QVQLQESGPGLVKPSQTLSLTCTVSGGSISTSGMGVGWIRQHPGKGLEWIGHIWWDDDKRYNPALKSRVTISVDTSKNQFSLKLSSVTAADTAVYYCARMELWSYYFDYWGQGTLVTVSS VL: EIVLTQSPATLSLSPGERATLSCSASSSVSYMHWYQQKPGQAPRLLIYDTSKLASGIPARFSGSGSGTDFTLTISSLEPEDVAVYYCFQGSVYPFTFGQGTKLEIKR | 0.061 | 0.002 | 0.022 | 0.005 |
| hBU12-42 (antibody, V domains shown, antibody carries drug-linker 42 (MDpr-Lys(PEG4)-glucuronide-MMAE), 8 drugs per antibody) VH: QVQLQESGPGLVKPSQTLSLTCTVSGGSISTSGMGVGWIRQHPGKGLEWIGHIWWDDDKRYNPALKSRVTISVDTSKNQFSLKLSSVTAADTAVYYCARMELWSYYFDYWGQGTLVTVSS VL: EIVLTQSPATLSLSPGERATLSCSASSSVSYMHWYQQKPGQAPRLLIYDTSKLASGIPARFSGSGSGTDFTLTISSLEPEDVAVYYCFQGSVYPFTFGQGTKLEIKR | > 1 | 0.003 | > 1 | 0.005 |
| hBU12-18 (antibody, V domains shown, antibody carries drug-linker 18 (MDpr-Lys(PEG8)-glucuronide-MMAE), 8 drugs per antibody) VH: QVQLQESGPGLVKPSQTLSLTCTVSGGSISTSGMGVGWIRQHPGKGLEWIGHIWWDDDKRYNPALKSRVTISVDTSKNQFSLKLSSVTAADTAVYYCARMELWSYYFDYWGQGTLVTVSS VL: EIVLTQSPATLSLSPGERATLSCSASSSVSYMHWYQQKPGQAPRLLIYDTSKLASGIPARFSGSGSGTDFTLTISSLEPEDVAVYYCFQGSVYPFTFGQGTKLEIKR | > 1 | 0.002 | 0.016 | 0.211 |
| hBU12-19 (antibody, V domains shown, antibody carries drug-linker 19 (MDpr-Lys(PEG4[PEG4]3)-glucuronide-MMAE, branched PEG), 8 drugs per antibody) VH: QVQLQESGPGLVKPSQTLSLTCTVSGGSISTSGMGVGWIRQHPGKGLEWIGHIWWDDDKRYNPALKSRVTISVDTSKNQFSLKLSSVTAADTAVYYCARMELWSYYFDYWGQGTLVTVSS VL: EIVLTQSPATLSLSPGERATLSCSASSSVSYMHWYQQKPGQAPRLLIYDTSKLASGIPARFSGSGSGTDFTLTISSLEPEDVAVYYCFQGSVYPFTFGQGTKLEIKR | > 1 | 0.002 | > 1 | 0.247 |
| hBU12-43 (antibody, V domains shown, antibody carries drug-linker 43 (MDpr-Lys(PEG2)-glucuronide-MMAE), 8 drugs per antibody) VH: QVQLQESGPGLVKPSQTLSLTCTVSGGSISTSGMGVGWIRQHPGKGLEWIGHIWWDDDKRYNPALKSRVTISVDTSKNQFSLKLSSVTAADTAVYYCARMELWSYYFDYWGQGTLVTVSS VL: EIVLTQSPATLSLSPGERATLSCSASSSVSYMHWYQQKPGQAPRLLIYDTSKLASGIPARFSGSGSGTDFTLTISSLEPEDVAVYYCFQGSVYPFTFGQGTKLEIKR | 0.229 | 0.002 | > 1 | 0.012 |
| hBU12-16 (antibody, V domains shown, antibody carries drug-linker 16 (MDpr-Lys(PEG24)-glucuronide-MMAE), 8 drugs per antibody) VH: QVQLQESGPGLVKPSQTLSLTCTVSGGSISTSGMGVGWIRQHPGKGLEWIGHIWWDDDKRYNPALKSRVTISVDTSKNQFSLKLSSVTAADTAVYYCARMELWSYYFDYWGQGTLVTVSS VL: EIVLTQSPATLSLSPGERATLSCSASSSVSYMHWYQQKPGQAPRLLIYDTSKLASGIPARFSGSGSGTDFTLTISSLEPEDVAVYYCFQGSVYPFTFGQGTKLEIKR | > 1 | 0.004 | > 1 | 0.003 |
| hBU12-17 (antibody, V domains shown, antibody carries drug-linker 17 (MDpr-Lys(PEG12)-glucuronide-MMAE), 8 drugs per antibody) VH: QVQLQESGPGLVKPSQTLSLTCTVSGGSISTSGMGVGWIRQHPGKGLEWIGHIWWDDDKRYNPALKSRVTISVDTSKNQFSLKLSSVTAADTAVYYCARMELWSYYFDYWGQGTLVTVSS VL: EIVLTQSPATLSLSPGERATLSCSASSSVSYMHWYQQKPGQAPRLLIYDTSKLASGIPARFSGSGSGTDFTLTISSLEPEDVAVYYCFQGSVYPFTFGQGTKLEIKR | > 1 | 0.002 | > 1 | 0.129 |

The molecules below were run against transferrin receptor (UniProt P02786) (assay: cell-based or functional assay).
transferrin receptor, sequence (P02786 whole entry): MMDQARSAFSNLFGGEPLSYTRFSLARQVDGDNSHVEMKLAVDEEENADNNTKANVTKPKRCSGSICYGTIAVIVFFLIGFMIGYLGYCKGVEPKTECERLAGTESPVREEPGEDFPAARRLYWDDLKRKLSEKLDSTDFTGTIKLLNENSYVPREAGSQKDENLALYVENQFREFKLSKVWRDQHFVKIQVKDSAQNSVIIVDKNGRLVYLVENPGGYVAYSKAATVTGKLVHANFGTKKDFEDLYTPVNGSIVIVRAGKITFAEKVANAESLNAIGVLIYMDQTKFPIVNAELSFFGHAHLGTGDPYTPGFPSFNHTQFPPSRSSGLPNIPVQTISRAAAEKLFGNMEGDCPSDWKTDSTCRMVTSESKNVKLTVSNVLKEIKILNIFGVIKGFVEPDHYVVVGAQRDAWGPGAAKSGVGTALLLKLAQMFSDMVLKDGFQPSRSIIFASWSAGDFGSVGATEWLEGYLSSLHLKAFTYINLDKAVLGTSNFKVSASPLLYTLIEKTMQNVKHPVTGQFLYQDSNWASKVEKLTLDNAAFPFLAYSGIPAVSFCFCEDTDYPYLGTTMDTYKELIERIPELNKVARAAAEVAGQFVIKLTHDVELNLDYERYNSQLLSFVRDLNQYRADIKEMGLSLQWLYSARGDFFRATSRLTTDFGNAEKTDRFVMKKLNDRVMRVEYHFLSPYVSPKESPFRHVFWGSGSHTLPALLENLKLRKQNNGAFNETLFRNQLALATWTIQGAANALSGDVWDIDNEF

| Molecule | IC50, cytotoxicity, colorectal cell line HT-29 (TfR copy number 23K) [nM] | IC50, cytotoxicity, melanoma cell line SK-MEL-5 (TfR copy number 21K) [nM] |
| --- | --- | --- |
| 8-load anti-transferrin receptor ADC (cOKT9) having -X-D of MDpr-PABA(gluc)-Camptothecin (antibody) | > 1000 | > 1000 |

Biological target: T1, CD19
Test: cell-based or functional assay
Remark: another data set of the same source

| Molecule | fold improvement in cytotoxicity against the 8-load conjugate, Raj cells [fold] | fold improvement in cytotoxicity against the 8-load conjugate, Ramos cells [fold] |
| --- | --- | --- |
| hBU12 32-load conjugate having the -X-D moiety of MDpr-PAB(gluc)-Camptothecin (antibody, V domains shown, antibody carries PEGylated multiplexed scaffold C with MDpr-PAB(gluc)-Camptothecin, 32 drugs per antibody) VH: QVQLQESGPGLVKPSQTLSLTCTVSGGSISTSGMGVGWIRQHPGKGLEWIGHIWWDDDKRYNPALKSRVTISVDTSKNQFSLKLSSVTAADTAVYYCARMELWSYYFDYWGQGTLVTVSS VL: EIVLTQSPATLSLSPGERATLSCSASSSVSYMHWYQQKPGQAPRLLIYDTSKLASGIPARFSGSGSGTDFTLTISSLEPEDVAVYYCFQGSVYPFTFGQGTKLEIKR | > 5 | > 5 |
